Source: publication PMC8219681, “Inhibition of MRN activity by a telomere protein motif” (Nature Communications, 2021)
Positions count from the first letter of the chain named. In names and notes the source's numbering stands.

Columns and labels:
[1] = biological target: T1, Rad50S (S. cerevisiae Rad50-K81I, FLAG-tagged at the C terminus) (S. cerevisiae, UniProt P12753 1-1312, K81I); assay: pull-down; MBP-Rif2 or MBP-Rif2-min immobilised on amylose resin, washed with 1 M NaCl buffer then 150 mM NaCl; 750 ng Rad50 or Rad50-K81I added for 1 h at 4 °C in wash buffer with 150 mM NaCl; Western blot with anti-Rad50; conditions: both partners purified
T1 construct: Rad50, Saccharomyces cerevisiae, K81I
T1 sequence (looked up): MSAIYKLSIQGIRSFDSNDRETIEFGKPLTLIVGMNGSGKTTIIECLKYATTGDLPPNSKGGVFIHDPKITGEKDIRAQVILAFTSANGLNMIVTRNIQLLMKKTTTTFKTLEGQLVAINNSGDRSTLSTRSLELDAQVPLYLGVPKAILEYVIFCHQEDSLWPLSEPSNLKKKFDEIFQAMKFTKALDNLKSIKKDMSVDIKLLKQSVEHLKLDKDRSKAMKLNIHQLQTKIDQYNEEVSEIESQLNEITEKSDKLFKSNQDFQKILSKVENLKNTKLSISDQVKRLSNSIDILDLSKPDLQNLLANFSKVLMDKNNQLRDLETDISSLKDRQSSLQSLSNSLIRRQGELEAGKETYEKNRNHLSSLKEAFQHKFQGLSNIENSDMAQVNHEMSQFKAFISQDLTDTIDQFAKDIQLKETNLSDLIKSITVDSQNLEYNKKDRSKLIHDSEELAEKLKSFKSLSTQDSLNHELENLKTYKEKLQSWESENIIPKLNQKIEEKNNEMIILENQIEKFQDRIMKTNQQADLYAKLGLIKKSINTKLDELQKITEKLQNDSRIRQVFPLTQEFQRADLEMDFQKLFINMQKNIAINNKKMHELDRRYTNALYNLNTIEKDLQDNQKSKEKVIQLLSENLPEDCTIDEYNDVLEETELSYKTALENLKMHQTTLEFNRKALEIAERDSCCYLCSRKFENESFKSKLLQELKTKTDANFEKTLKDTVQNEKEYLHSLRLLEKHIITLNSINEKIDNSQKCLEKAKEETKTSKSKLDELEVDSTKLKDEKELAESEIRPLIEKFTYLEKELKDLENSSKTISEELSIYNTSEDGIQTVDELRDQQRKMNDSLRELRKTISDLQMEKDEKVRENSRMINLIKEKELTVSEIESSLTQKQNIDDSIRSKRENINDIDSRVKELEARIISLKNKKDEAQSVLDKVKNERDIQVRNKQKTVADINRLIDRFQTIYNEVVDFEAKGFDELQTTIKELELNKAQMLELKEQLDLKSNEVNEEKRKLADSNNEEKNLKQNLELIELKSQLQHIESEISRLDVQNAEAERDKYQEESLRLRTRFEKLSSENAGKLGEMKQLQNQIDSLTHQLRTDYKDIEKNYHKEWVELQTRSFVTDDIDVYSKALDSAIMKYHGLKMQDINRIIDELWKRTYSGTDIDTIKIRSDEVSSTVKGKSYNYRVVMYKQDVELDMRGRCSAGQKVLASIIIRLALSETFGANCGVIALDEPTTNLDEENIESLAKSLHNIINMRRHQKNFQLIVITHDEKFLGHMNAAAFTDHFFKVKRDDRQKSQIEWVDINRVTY

[2] = biological target: T2, Rad50 (S. cerevisiae, FLAG-tagged at the C terminus) (S. cerevisiae, UniProt P12753 1-1312); assay: pull-down; MBP-Rif2 or MBP-Rif2-min (~5 ug, from Sf9 lysate) immobilised on amylose resin and washed; 1 ug Mre11, 500 ng Rad50 or 1 ug Xrs2 added for 1 h in 50 mM Tris-HCl pH 7.5, 200 mM NaCl, 0.2% NP40, 2 mM EDTA; eluted with 20 mM maltose; Western blot; conditions: both partners purified
T2 construct: Rad50, Saccharomyces cerevisiae
T2 sequence (looked up): T1 sequence (looked up) with I81K

B1: MBP-Rif2 (S. cerevisiae Rif2, wild type) (natural protein, UniProt Q06208 1-395, looked up)
chain: MEHVDSDFAPIRRSKKVVDSDKIVKAISDDLEQKNFTVLRKLNLVPIKKSVSSPKVCKPSPVKERVDHVFYQKFKSMALQELGTNYLSISYVPSLSKFLSKNLRSMKNCIVFFDKVEHIHQYAGIDRAVSETLSLVDINVVIIEMNDYLMKEGIQSSKSKECIESMGQASYSGQLDFEASEKPSNHTSDLMMMVMRKINNDESIDHIVYFKFEQLDKLSTSTIIEPSKLTEFINVLSVLEKSNNIAFKVLIYSNNVSISSLLSTSLKKKLNTKYTVFEMPILTCAQEQEYLKKMIKFTFDSGSKLLQSYNSLVTCQLNNKESNLAIFFEFLKVFPHPFTYLFNAYTEIIVQSRTFDELLDKIRNRLTIKNYPHSAYNFKKNQRLPLKLTRKVHDR
notes: Rif2, Saccharomyces cerevisiae, full length, expressed from the vector pFB-MBP-Rif2-his; MBP was cleaved with PreScission protease only after elution from the resin; N-terminal place of MBP is read from the construct's name MBP-Rif2-his; also called ScRif2; not shown: MBP, N-terminal, kept
**Q.** What does the source list for B1?
**A.** binding result [1]: binds; binding result [2]: binds

B2: MBP-Rif2-min (S. cerevisiae Rif2 F8E P10N) (natural protein, UniProt Q06208 1-395, looked up)
chain: B1 chain with F8E, P10N
notes: Rif2, Saccharomyces cerevisiae, full length, F8E P10N, expressed from the vector pFB-MBP-Rif2-min-his; MBP was cleaved with PreScission protease only after elution from the resin; N-terminal place of MBP is read from the construct's name; also called mutant Rif2; not shown: MBP, N-terminal, kept
**Q.** Does B2 bind [1]?
**A.** binds

**Q.** Does B2 bind [2]?
**A.** binds
